Laboratory results reported in paper PMC10480196, “Glycerol biosynthetic pathway plays an essential role in proliferation and antioxidative defense in the human enteric protozoan parasite Entamoeba histolytica” (Scientific Reports, 2023).

What was measured:
Assay type in all cases: biochemical, Entamoeba histolytica
purified protein [1] = substrate: Nc1ncnc2c1ncn2[C@@H]1O[C@H](COP(=O)(O)OP(=O)(O)O)[C@@H](O)[C@H]1O; assay: purified protein; conditions: reverse reaction, 40 mM G3P, 5 mM MgSO4, 1 mM EDTA, 50 mM Tris HCl pH 7.5
purified protein [2] = substrate: O=P(O)(O)OC[C@H](O)CO; assay: purified protein; conditions: reverse reaction, 1 mM ADP, 5 mM MgSO4, 1 mM EDTA, 50 mM Tris HCl pH 7.5
[3] = substrate: Nc1ncnc2c1ncn2[C@@H]1O[C@H](COP(=O)(O)OP(=O)(O)OP(=O)(O)O)[C@@H](O)[C@H]1O; assay: coupled fluorescence assay (ADP hexokinase, G6P dehydrogenase, diaphorase; resazurin reduction); conditions: forward reaction, 2 mM glycerol, 5 mM MgCl2, 50 mM Tris HCl pH 7.5, 37 °C, 10 mM N-ethylmaleimide
Excerpt: (§1) coupled fluorescence assay (ADP hexokinase, G6P dehydrogenase, diaphorase; resazurin reduction) on EhGK (rEhGK, recombinant E. histolytica glycerol kinase)

[4] = substrate: OCC(O)CO; assay: as above; conditions: forward reaction, 2 mM ATP, 5 mM MgCl2, 50 mM Tris HCl pH 7.5, 37 °C, 10 mM N-ethylmaleimide
Excerpt: as §1

B1: EhGK (rEhGK, recombinant E. histolytica glycerol kinase) (Entamoeba histolytica HM-1:IMSS) (protein)
chain: MKYILAIDQGTTSTRVILFDEKCQSIHTEQEEFDSIFPHPGWVEQDPEVIYTSVVNLMKKCLVNTGINKEDIAAIGITNQRETTVMWDKRTGKPIYNAIVWQSKQSGNETSYLMEKGYEEIFQSKTGLVLNPYFSASKIMWIFNNVEGAKALAEEGVLLFGTIDTWIIYNLTGGQSHSTDISNAARTLLFNIYEKKWDDELLAKTNIPKSILPIVKQSSDDFGIVSTIQEFNGIHITGVAGDQQASLFGHGSPIGGCKSTYGTGCFVVKNIGDTIKEIPKGLLATVGWEINGKITYALEGTVMTAGAALKWIRDIGILKDYNEISKIVTSKNGGVYFVPAFQGLGTPYWDDDVRGIIVGLTSGTGKGELVRATLESIALQCAQVIEIMGKINEIKVDGGVSRSDCMLQFQADICNCTVIRLKEKEITAMGAAMLAGLYVHLFKEDELDSMRVIEHVFKPQMSEEERKQIFSVWNKAVESARSFVH
In the case of B1, the Km (purified protein [1]) is reported as 140 ± 40 µM, the Vmax (purified protein [1]) is reported as 1.2 µmol/min/mg and the Km (purified protein [2]) is reported as 8710 ± 2460 µM. It also gave a Vmax (purified protein [2]) of 1.28 µmol/min/mg, a Km [3] of 230 ± 30 µM and a Vmax [3] of 1.3 µmol/min/mg. It also gave a Km [4] of 160 ± 30 µM and a Vmax [4] of 1.48 µmol/min/mg.
